Measurements published in patent US20200055896A1, “SUBSTRATES RECOGNIZED BY FIBROBLAST ACTIVATION PROTEIN (FAP) AND METHODS OF USING THE SAME” (GENENTECH, INC., priority 2017, published 2020).
No end group written: not given here.

Experiments:
[1] = target: T1, FAP endopeptidase activity in the plasma (Mus musculus, UniProt P97321); assay: FRET-quench assay: probe cleavage in mouse plasma (Fap WT, heterozygous, KO); format: biochemical, mice
T1 construct: the extracellular domain encoding the active enzyme can be shed from the cell surface; from tissue; host or cells: mouse plasma (C57BL/6 background; Fap +/+, +/-, -/-)
T1 sequence (P97321 24-761 limits assumed): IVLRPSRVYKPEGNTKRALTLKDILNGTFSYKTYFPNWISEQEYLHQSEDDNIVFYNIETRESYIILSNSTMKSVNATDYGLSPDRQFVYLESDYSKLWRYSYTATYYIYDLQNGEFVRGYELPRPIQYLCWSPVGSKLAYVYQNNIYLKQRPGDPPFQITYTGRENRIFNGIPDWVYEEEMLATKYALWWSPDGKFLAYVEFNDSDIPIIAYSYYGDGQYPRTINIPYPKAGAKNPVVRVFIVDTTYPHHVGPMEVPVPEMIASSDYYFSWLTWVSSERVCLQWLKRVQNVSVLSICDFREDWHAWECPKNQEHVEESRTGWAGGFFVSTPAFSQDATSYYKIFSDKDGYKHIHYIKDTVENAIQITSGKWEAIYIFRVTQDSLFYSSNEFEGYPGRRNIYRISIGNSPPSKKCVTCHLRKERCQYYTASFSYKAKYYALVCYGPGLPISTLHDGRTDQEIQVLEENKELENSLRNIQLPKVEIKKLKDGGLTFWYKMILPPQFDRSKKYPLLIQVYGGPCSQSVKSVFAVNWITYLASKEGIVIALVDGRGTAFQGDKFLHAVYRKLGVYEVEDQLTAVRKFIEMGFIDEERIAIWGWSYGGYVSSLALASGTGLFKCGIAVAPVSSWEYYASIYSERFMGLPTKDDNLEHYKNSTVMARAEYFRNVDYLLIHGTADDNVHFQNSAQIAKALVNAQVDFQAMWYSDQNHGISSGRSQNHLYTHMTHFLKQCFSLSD
Procedure: (§1) Mouse plasma samples were prepared in K3-EDTA MiniCollect tubes (Greiner Bio-One, 450475) and frozen immediately at −80° C. prior to analysis. Human serum samples were obtained from healthy donors or purchased from Discovery Life Sciences, Inc. (Los Osos, Calif.).
(§2) Peptides of the region flanking the C-terminal human FGF21 cleavage site (VGPSQG) or a variant with D-alanine at P2 (VaPSQG) were synthesized (Anaspec, Inc.), containing an amine-terminal donor (HyLite Fluor 488 or Cy5.5 for aP NIRF) and a dark quencher-acceptor (QXL 520 or QSY21 for aP NIRF) conjugated to a supplementary C-terminal lysine. ANPFAP (Bioconjugate Chem 23:1704-11) and aP NIRF were synthesized by CPC Scientific (Sunnyvale, Calif.). Assays were conducted at 37° C. in 50 mM HEPES (pH 7.2), 150 mM NaCl, 1 mM EDTA, 0.1 mg/ml BSA. The excitation/emission wavelengths of cleaved peptide are 490/520 nm or 675/695 nm for ANPFAP and aP NIRF. Fluorescence was monitored on a Tecan M1000 Pro plate reader in kinetic mode. Except where indicated otherwise, measurements of serum or plasma FAP activity were performed with the peptide substrate concentration at 6 μM and a 10-fold dilution of serum or plasma in assay buffer.

FAP = target: T2, FAP (Homo sapiens, UniProt Q12884); assay: aP cleavage in anti-FAP or control IgG-immunodepleted human serum; format: biochemical; conditions: after FAP immunodepletion; serum diluted 2.5-fold
T2 construct: the extracellular domain encoding the active enzyme can be shed from the cell surface; tissue Discovery Life Sciences, Inc. (part of the samples); host or cells: human serum (healthy donors, cirrhosis patients)
T2 sequence (Q12884 24-760 limits assumed): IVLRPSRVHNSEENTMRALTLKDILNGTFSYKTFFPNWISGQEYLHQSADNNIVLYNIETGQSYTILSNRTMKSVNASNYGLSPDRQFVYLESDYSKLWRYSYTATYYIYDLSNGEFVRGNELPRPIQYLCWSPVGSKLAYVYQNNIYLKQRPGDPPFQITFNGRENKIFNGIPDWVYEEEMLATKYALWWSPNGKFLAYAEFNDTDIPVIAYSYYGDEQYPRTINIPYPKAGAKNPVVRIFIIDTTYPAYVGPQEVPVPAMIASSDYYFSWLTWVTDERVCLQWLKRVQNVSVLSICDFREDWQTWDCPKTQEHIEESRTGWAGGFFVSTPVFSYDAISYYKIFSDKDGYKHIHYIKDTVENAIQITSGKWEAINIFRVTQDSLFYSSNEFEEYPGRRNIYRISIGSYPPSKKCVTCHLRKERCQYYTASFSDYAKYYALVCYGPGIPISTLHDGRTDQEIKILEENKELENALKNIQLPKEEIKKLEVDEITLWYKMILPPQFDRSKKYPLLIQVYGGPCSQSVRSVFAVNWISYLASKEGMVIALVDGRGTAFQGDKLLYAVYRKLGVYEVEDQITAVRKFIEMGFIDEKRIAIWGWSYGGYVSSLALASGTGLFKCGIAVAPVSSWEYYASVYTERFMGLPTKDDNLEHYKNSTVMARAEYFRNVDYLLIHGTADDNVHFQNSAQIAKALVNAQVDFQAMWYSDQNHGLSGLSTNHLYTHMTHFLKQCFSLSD
Procedure: as §1, §2

GP probe: human FGF21 cleavage-site peptide VGPSQG with amine-terminal HyLite Fluor 488 donor and QXL 520 quencher on supplementary C-terminal lysine ({HyLite Fluor 488}-VGPSQGK(QXL 520))
probe cleavage activity in plasma ([1]; plasma from Fap heterozygous mice, 3 μM peptide): approximately half the activity as that from WT mice
probe cleavage signal in plasma ([1]; plasma from WT (Fap+/+) mice, 3 μM peptide): strong signal
probe cleavage activity in plasma ([1]; plasma from homozygous Fap KO mice, 3 μM peptide): even lower, but significant activity

aP probe: FGF21-based peptide VaPSQG (D-alanine at P2) with HyLite Fluor 488 donor and QXL 520 quencher
probe cleavage in plasma ([1]; Fap KO plasma, plasma diluted 10-fold): no cleavage
probe cleavage signal in plasma ([1]; WT plasma, plasma diluted 10-fold): clear signal
probe cleavage signal in plasma ([1]; heterozygous plasma, plasma diluted 10-fold): intermediate
cleavage signal in human serum (FAP): signal is lost
